# Experimental data: the DeepSol protein solubility set
# Experiment: soluble on expression in E. coli; label from the status in PepcDB or PDB records
row,Sequence,soluble on expression in E. coli
1,GSVSPTFQVVNSFAPVQECSTQLDIVIVLDGSNSIYPWESVIAFLNDLLKRMDIGPKQTQVGIVQYGENVTHEFNLNKYSSTEEVLVAANKIVQRGGRQTMTALGIDTARKEAFTEARGARRGVKKVMVIVTDGESHDNYRLKQVIQDCEDENIQRFSIAILGHYNRGNLSTEKFVEEIKSIASEPTEKHFFNVSDELALVTIVKALGERIFALEALERPHRD,soluble
2,GTEDTFWKDETDFNLALTSCYTPLKNALNGGYYGTRGVMLRIARADEVDFRNDISDVYTVNRFTNSNTNSLTQGMFYQFYNALYRTNSIMQKLEEKKEQFSTDFQNSVKGECLFIRGFYLFQLAKEFKDAPLRLTASQSPSTFPLAKSSQADIWAQAKEDLKTAASLLPITNKIGKPTQGAAYAALGKIYVYEENWQEAINVLEPLTQNPYTYKLVEDFNWNFDDTHENNAESIFELLIEDVGGTDLWGDGENINSTQSNTRPKEYAAAEVGGWYEANPTQQIMDIFWKEKDKDGNFDYRARCSVAWDYEGCTYYQRPFREVFAQDKWKTYWILKYQNWKTQKDEPAPPKSFINERAIRYADVLLMLAEAYMNKGALDTSIGYINQIRRRANLNDYSGPITKEGVFEDLVHQRAIEFFVEGERFYDLRRWGLLEQTLKTCDDTRYKNYQTGKSDNINKFNYFPIPAKELDTNPLCTPSEGW,soluble
3,GTENLYFQGMSDVIEGRLKELGFTLPVAAAPAANYVPFTISGNLLYVSGQLPMESGKIAVTGLVGRDVDVASAQRAAELCAVNILAQVKAALNGDLSKIRRVIKLNGFVASVPEFVEQHLVINGASNLIATVLGEPGRHARAAVGMASLPFNASVEIDAIVEIDV,soluble
4,GTGRSRLLEDFRNNRFPNLQLRDLIGHIVEFSQDQHGSRFIQQKLERATPAERQIVFNEILQAAYQLMTDVFGNYVIQKFFEFGSLDQKLALATRIRGHVLPLALQMYGCRVIQKALESISSDQQSEMVKELDGHVLKCVKDQNGNHVVQKCIECVQPQSLQFIIDAFKGQVFVLSTHPYGCRVIQRILEHCTAEQTLPILEELHQHTEQLVQDQYGNYVIQHVLEHGRPEDKSKIVSEIRGKVLALSQHKFASNVVEKCVTHASRAERALLIDEVCCQNDGPHSALYTMMKDQYANYVVQKMIDMAEPAQRKIIMHKIRPHITTLRKYTYGKHILAKLEKYYLKNSPDLG,soluble
5,GTVEGVVGVTREVTEQRKHEMEIARQRSILKAQQEAVIDGILVVDEDDTIVSYNERFVDMWDIPRDIVERGDEEIALEWAMEQVAEPEAFRVDVEALYEDPETTARDELELADGRVFDRYTAPVVAEDGTRFGRLWAFRD,not soluble
6,GYCGPCPNNWICHRNNCYQFFNEEKTWNQSQASCLSQNSSLLKIYSKEEQDFLKLVKSYHWMGLVQIPANGSWQWEDGSSLSYNQLTLVEIPKGSCAVYGSSFKAYTEDCANLNTYICMKRAV,soluble
7,GYSQYNIHGNQFYNLGIDYAYRWHRFSFQGETAMGKQGSATLNRFQYSPVEGTQLMIVQRYYSYNYWAMFAHSFGEGSAVQNEQGYYLGVETSPFRYWHILASFDLFSFPWKKYRISKPSRGMDGLLQATFTPHNNLTMYLKYRYKQKERDLTGSKENLTLPIFHHQLRYRLNYFYGDVFSCRTTLDYNHFHSQDRAASKGYQVTQMMSSQLPWTRLFADVQGSYFSTDDYDSRVYVSEKGLLYTFYTPSFQGRGFRCAVRLRYEPNEHWMFITKFGETVYLDRNEIGSGNDLILGNKKADVQMQLRIKF,not soluble
8,HARKSLTVLVVGESARAENFGILGYGRNTTPNLNKENGLVAFTDVYSCGTETAVSVPCMFSNMGRKNYNATKARNQEGLLDVLKHAGIEVAWRDNQSGCKGTCDRVTFQDVSNLTDPLLCNSHECRDEILLQNLQGFIDSLDKDTVLVLHQMGSHGPEYYKRYPKEFEKFTPVCESNALNNCSRDSIVNAYDNTLLYTDHVLSTLIDLLRSNQAKVDTAMVYLSDHGESLGEYNLFLHGTPYVLAPDQQKHVPMLIWLSDTYQKSFAVTPDCLAKQRNAPLSQDNLFHSMLGLLKVDTKVYDPSLDMFAGCRSELAAADKQ,not soluble
9,HAYKNALYDDEVSQFSNNWPLYYPLTARKFIYKHDLVDENIASKNRVELTNIERSSLNYPLAPIQVQSKEKQPNVLFILVDAWRYSDATPEVMPNVSKFAEKTVNFTQHMSGGNSTQAGIFSLFYSLPATYWESFYASQRSPVFMDTLQAEGYRMGIFGSAPLTSPPLSRTVFKKVSDLTLKQTGETAVERDQQITDKFIEFQKQDSDKPYFGFLFYDAAHGTVFPEPEFAKFKPYWERVDHILLNNDFDASLYHNRYKNSLYYIDSLIDDVLKNVDLDNTIVVISSDHGEEFNDHKMNYWGHTGNYSDVQVHVPLYVYMPNRQPEQIDYRTTHFDVVPTMMNTLFDVQGTTSSYSVGHNLFDSSAPRDWYIAGSYYNYALVGKELMLVVNPGGHSQQLNRQLKVEKEQKVPVDIIRHSLDEMSRFYKKG,not soluble
10,HFASTRSFLDTVKLDHAIWKNNIYRLLQSGSFGETVNSHSECRLGQWYYRGDGKAYSQLRSYAQLEAPHKGVHDSGRDAMNHAKSGNMAGMVTSINSMEDTSEQVVIHIDRLMDEIIAN,not soluble
11,HHHHHHGSAQLPSPTNGKKWEKVEQLSDEFDGNSIDTNKWYDYHPFWEGRAPSNFKKGDAFVSDGFLNLRSTLRKEPSSVQDPFKDIWVDAAAAVSKTKAQPGYYYEARFMASSLSMTSSFWFRVGQFSSIDVIEHIGDPSKENRQDDLPYQYHVNTHYYGKHAGLQPLGTEYKMPGRGRDNFYTYGFWWKSPNELLFYFNGKQVMRIVPRVPLDEELRMIFDTEVFPFATAGVANIGLPKPENLRDNSKNTMKVDWVRVYKLVDGTA,soluble
12,HHHHHHHHHHMLPTPYVKCDYDKVYEPAEDSFLILDCLEKEHDFLKQKFGNRLAIVCEIGSGSGIVTTFLMQNKIIPQENSIHLAVDINPWALEATLDTAKLNSCKSSFLEVIQADLNSSIRNNQVDVLIFNPPYVPAECVPDVPGSREEADQWLDLALLGGKDGMAITDKLLRQLEQILSPDGVAYILFCARNKPKEVIKRFVDTYKWNVKLIETRKAGWEVLSVYSFTR,not soluble
13,HHSVEAPQVKKRMGKFPFVKASKKESEEISKQLHNALDIELPSESTVWLRDKDVWLFPDALEPMIGELRFSRMGIKIAEAHKNGYRWQHQVATALATGAESNAIELTIEEAREWYMGRDVRPQIIPEGLKTGKGEVLVKYQGAIIGLGKWVSNRIKNGLPRELVRDKNLF,not soluble
14,HHYVKGELKIAASFTIGEYILPPLLAQLQKLYPELNLDVMIGNTEEVSERVRMLQADIGLIEGHTNENELEIEPFMEDEMCIAAPNQHPLAGRKEISISDLQNEAWVTREKGSGTREYLDHVLSSNGLRPKSMFTISSNQGVK,not soluble
15,HMRQRHILFANVQGHGHVYPSLGLVSELARRGHRITYVTTPLFADEVKAAGAEVVLYKSEFDTFHVPEVVKQEDAETQLHLVYVRENVAILRAAEEALGDNPPDLVVYDVFPFIAGRLLAARWDRPAVRLTGGFAANEHYSLFKELWKSNGQRHPADVEAVHSVLVDLLGKYGVDTPVKEYWDEIEGLTIVFLPKSFQPFAETFDERFAFVGPTLTGRDGQPGWQPPRPDAPVLLVSLGNQFNEHPEFFRACAQAFADTPWHVVMAIGGFLDPAVLGPLPPNVEAHQWIPFHSVLAHARACLTHGTTGAVLEAFAAGVPLVLVPHFATEAAPSAERVIELGLGSVLRPDQLEPASIREAVERLAADSAVRERVRRMQRDILSSGGPARAADEVEAYLGRVAP,soluble
16,HMTPQDHEKAALIMQVLQLTADQIAMLPPEQRQSILILKEQIQKSTGAP,soluble
17,HRIDTKTAQKDKFGAGKNGFTRGNPQTGTPATDLDDDYFDMLQEELCSVVEASGASLEKGRHDQLLTALRALLLSRKNPFGDIKSDGTVQTALENLGLGEGAKLNAATATLGRTGFIAIPVMIGGIEQSVIIQWGWNAAKASASGGDGNTVVFPVAFNNACVAVVANYDNVSAPINAVATGGYTTTSFLLRCAAQTGSYYYNWIAIGY,not soluble
18,HRTRIEDESIHKLVLDAHRCIHQHLDVLHQQLHQHCEECDLSNIDDAGLEQRLNEWRDEDDSSARMVLQQLHLIYRMLPELHSLASKFAVRVN,not soluble
19,HSGEDLPMVAPGNVRVNVVNSTLAEVHWDPVPLKSIRGHLQGYRIYYWKTQSSSKRNRRHIEKKILTFQGSKTHGMLPGLEPFSHYTLNVRVVNGKGEGPASPDRVFNTPEG,soluble
20,HTLNKALADTRANLTESVGNAGEVLHDITGVVSTPMPSENDSENLFDSVSNYPTGNKSDTHNAFGSSGKTAPMPYQSAYAPQQRSLSLRESRAAMNTYAELYKKTDDIDLELSRFEQARFGNMPSETPAPQTDTPLSDGIPSQSELPPLGFAIAQLLGIYILAQAEDSLLLIDMHAAAERVNYEKMKRQRQENGNLQSQRLLIPVTFAASHEECAALADYAETLAGFGLELSDMGGNTLAVRAVPAMLGKADVVSLAKDVLNELAQVGSSQTIEEHENRILATMSCHGSIRAGRRLTLPEMNALLRDMENTPRSNQCNHGRPTWVKLTLKELDALFLRGQ,not soluble
21,HVYAFDIQESAVANTKERLGDMYQARTTLFHKSHDKIAESLPPETHGKVAAAVFNLGYLPGGDKSITTNGSSTIKAIEQLLSIMKDEGLIVLVVYHGHPEGKAEKNDVLEFCRDLDQQTARVLTYGFINQQNDPPFIVAIEKKAQISK,not soluble
22,IEIRSVVYQIEGQPYESRLVYDSSATALQPGLLMAPNWMGVSRGAEDIARAVAAKGYVVLLADLYGQQLRPSNNDEAGAAMTPLKNDRGLLRKRMQAGLDQLLSQADVSLDVSRIATFGFCFGGCCSLELARTGAELKAAISFHGTLDTPNPADASNIKGSVLVLHGASDPLVPKEQLPAFEEEMNAAGVDWQLHSHGGAFHSFTDPHANVPGMMMYDAKVSARAFKSMHDLLKEVFG,not soluble
23,IGADVDLATLSGLDGAALHFEQTIFILDNGTGQPTGGEWQGAVGSYFGGAPLHNDIASNQLSLLTYKQKWLDGQLDLHVGRTNGRRYFYIYNCETGVTCNDPILDASSGMLPPPFGAWGGYLKYQVNPRFYVHAGAFESNPVDYLKKRKGLDFSTDDASGTSFLVGIGSKPGDNTTQYELNA,not soluble
24,ILEQDLNDFMSTGAHGLDLYQLVVGGTAPMLNLVEKGKIPPPATTPEKAGMYELGVNFMAKHHMKQLSVNHWAVDNRERSLYNSLAKTYAE,not soluble
25,ILVKNLPQDSNCQEVHDLLKDYDLKYCYVDRNKRTAFVTLLNGEQAQNAIQMFHQYSFRGKDLIVQLQPTDALLC,soluble
26,IPNDILIVNPEAQGLVDGHKVIVKITKYPEGRMSAEGEVISILGHKNDPGMDILSIIYKYGIPQAFPEEVLQQAQNIPDEIDAGEIKNRRDLRDEPLVTIDGADAKDLDDAVHVSRLPNGNFKLGVHIADVSYYVKEKSPIDLEAAERGTSVYLVDRVIPMIPHRLSNGICSLNPQVDRLTLSCEMEITRDGQVVNHEIFQSVIRTNERMTYHDVNKILVEKEEELRNRYELLVPMFEDMEELAAILRKKRFGRGAIDFDFKEAKVLVDEEGKPSDVVIRERGVAEKLIEEFMLAANETVAEHFHWLKLPFMYRIHEDPDSEKLGRFLEFITNFGYVVRGTANTVHPRALQKLLEEVRGEPEEQVISTVMLRSMQQAK,not soluble
27,IQVFLSARPPAPEVSKIYDNLILQYSPSKSLQMILRRALGDFENMLADGSFRAAPKSYPIPHTAFEKSIIVQTSRMFPVSLIEAARNHFDPLGLETARAFGHKLATAALACFFAREKATNS,soluble
